PMC11077872, “Sustainable production of multimeric and functional recombinant human adiponectin using genome-edited chickens” (Journal of Biological Engineering, 2024)
Values joined by “and” are separate entries in the source; they are usually repeats but may differ in a detail not shown here. Equal values may be shown once.

Key:
[1] = target: the molecule itself; test: non-reducing SDS-PAGE with western blot; egg white of hens of generations G1-G4 diluted 500 times, mixed with native sample buffer (non-reducing), SDS-PAGE, anti-ADPN blot; with beta-mercaptoethanol and 95 °C mostly monomer at 28 kDa and a weak trimer signal
[2] = target: the molecule itself; test: non-reducing SDS-PAGE with western blot; 100 ng of purified or commercial hADPN, mixed with native sample buffer (non-reducing), SDS-PAGE, anti-ADPN blot; with beta-mercaptoethanol and 95 °C mostly monomer, some trimer

B1: recombinant human adiponectin (hADPN) from egg white of OVA ADPN knock-in genome-edited chickens (natural protein, UniProt Q15848 19-244, looked up)
chain: ETTTQGPGVLLPLPKGACTGWMAGIPGHPGHNGAPGRDGRDGTPGEKGEKGDPGLIGPKGDIGETGVPGAEGPRGFPGIQGRKGEPGEGAYVYRSAFSVGLETYVTIPNMPIRFTKIFYNQQNHYDGSTGKFHCNIPGLYYFAYHITVYMKDVKVSLFKKDKAMLFTYDQYQENNVDQASGSVLLHLEVGDQVWLQVYGEGERNGLYADNDNDSTFTGFLLYHDTN
notes: human adiponectin (ADPN), expressed from the chicken ovalbumin locus by knock-in; A mixture of hexamers and HMW multimers; also called EW-derived hADPN; EW-derived recombinant hADPN; source: egg white of OVA ADPN knock-in hens (G1-G4), diluted egg white; also purified from egg white (ammonium sulfate, HiTrap Q, Superdex 200 SEC)
Q: Which “stoichiometry N” value [1] does the source give for B1 here?
A: The value was 6.

B2: commercial recombinant hADPN derived from human embryonic kidney (HEK) 293 cells with a C-terminal FLAG tag (natural protein, UniProt Q15848 19-244, looked up)
chain: ETTTQGPGVLLPLPKGACTGWMAGIPGHPGHNGAPGRDGRDGTPGEKGEKGDPGLIGPKGDIGETGVPGAEGPRGFPGIQGRKGEPGEGAYVYRSAFSVGLETYVTIPNMPIRFTKIFYNQQNHYDGSTGKFHCNIPGLYYFAYHITVYMKDVKVSLFKKDKAMLFTYDQYQENNVDQASGSVLLHLEVGDQVWLQVYGEGERNGLYADNDNDSTFTGFLLYHDTN
notes: human adiponectin (ADPN); Mixture of trimers, hexamers and HMW forms; also called HEK293 cell hADPN; HEK293 cell-derived commercial hADPN; source: bought: Biovendor R&D (RD172023100), HEK293 cells; not shown: FLAG, C-terminal, kept
Q: Which “stoichiometry N” value [2] does the source give for B2 here?
A: Its value is 6 and 3.

B3: High-Five (Hi-5) cell-derived recombinant hADPN (natural protein, human, UniProt Q15848 19-244, looked up)
chain: ETTTQGPGVLLPLPKGACTGWMAGIPGHPGHNGAPGRDGRDGTPGEKGEKGDPGLIGPKGDIGETGVPGAEGPRGFPGIQGRKGEPGEGAYVYRSAFSVGLETYVTIPNMPIRFTKIFYNQQNHYDGSTGKFHCNIPGLYYFAYHITVYMKDVKVSLFKKDKAMLFTYDQYQENNVDQASGSVLLHLEVGDQVWLQVYGEGERNGLYADNDNDSTFTGFLLYHDTN
notes: human adiponectin (ADPN); Mostly trimers, with hexamers and a weak monomer signal; also called Hi-5 cell hADPN; Hi-5 cell-derived commercial hADPN; source: bought: PeproTech (450-24), Hi-5 cells
Q: B3 was tested. Which “stoichiometry N” value [2] did it give?
A: Its value is 3 and 6.

B4: serum-derived commercial hADPN (natural protein, human, UniProt Q15848 19-244, looked up)
chain: ETTTQGPGVLLPLPKGACTGWMAGIPGHPGHNGAPGRDGRDGTPGEKGEKGDPGLIGPKGDIGETGVPGAEGPRGFPGIQGRKGEPGEGAYVYRSAFSVGLETYVTIPNMPIRFTKIFYNQQNHYDGSTGKFHCNIPGLYYFAYHITVYMKDVKVSLFKKDKAMLFTYDQYQENNVDQASGSVLLHLEVGDQVWLQVYGEGERNGLYADNDNDSTFTGFLLYHDTN
notes: human adiponectin (ADPN), native protein from human serum; also called native serum-derived hADPN; human serum hADPN (positive control); source: bought: ProSpec (CYT-024), derived from human serum
Q: How did the “stoichiometry N” value [2] turn out when B4 was run?
A: Its value is 6.
